From patent US20260083845A1 (CELLICURE, published 2026)

T1: NKG2D (natural receptor on NK cells) (human, UniProt P26718 1-216)
T1 construct: whole, on cells; also called NKG2D receptors; natural NKG2D
T1 sequence (looked up): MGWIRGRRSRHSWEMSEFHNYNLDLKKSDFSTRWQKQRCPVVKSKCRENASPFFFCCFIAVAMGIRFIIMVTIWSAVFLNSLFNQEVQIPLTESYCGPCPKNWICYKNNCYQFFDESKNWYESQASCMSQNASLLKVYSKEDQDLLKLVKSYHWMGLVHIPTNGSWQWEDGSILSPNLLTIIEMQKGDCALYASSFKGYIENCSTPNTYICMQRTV

T2: NKG2D-GFP (human, UniProt P26718 1-216)
T2 construct: whole, on cells; NKG2D-GFP expressed in NK cells for the PLA between GFP and DAP10; also called natural NKG2D; not shown: GFP
T2 sequence (looked up): T1 sequence (looked up)

B1: DNAX-Activation Protein 10 (DAP10) (other, human, UniProt Q9UBK5 19-93, looked up)
chain: QTTPGERSSLPAFYPGTSGSCSGCGSLSLPLLAGLVAADAVASLLIVGAVFLCARPRRSPAQEDGKVYINMPGRG
notes: whole, on cells; Endogenous DAP10 of the NK cells, detected with anti-DAP10 (mouse IgG) in the PLA
B2: CAR2-GFP fusion (NKG2D CAR: anti-CD19 ScFv-CD8 hinge-NKG2D TM-2B4 ICD-CD3zeta, fused to GFP) (receptor)
chain: EVKLQQSGAELVRPGSSVKISCKASGYAFSSYWMNWVKQRPGQGLEWIGQIYPGDGDTNYNGKFKGQATLTADKSSSTAYMQLSGLTSEDSAVYFCARKTISSVVDFYFDYWGQGTTVTVSSGGGGSGGGGSGGGGSDIELTQSPKFMSTSVGDRVSVTCKASQNVGTNVAWYQQKPGQSPKPLIYSATYRNSGVPDRFTGSGSGTDFTLTITNVQSKDLADYFCQQYNRYPYTSGGGTKLEIKPAKPTTTPAPRPPTPAPTIASQPLSLRPEACRPAAGGAVHTRGLDFACDPFFFCCFIAVAMGIRFIIMVTWRRKRKEKQSETSPKEFLTIYEDVKDLKTRRNHEQEQTFPGGGSTIYSMIQSQSSAPTSQEPAYTLYSLIQPSRKSGSRKRNHSPSFNSTIYEVIGKSQPKAQNPARLSRKELENFDVYSSFGLLDPKLCYLLDGILFIYGVILTALFLRVKFSRSADAPAYQQGQNQLYNELNLGRREEYDVLDKRRGRDPEMGGKPRRKNPQEGLYNELQKDKMAEAYSEIGMKGERRRGKGHDGLYQGLSTATKDTYDALHMQALPPR
notes: Expressed in NK cells for the Duolink PLA; not shown: GFP

Key:
[1] = target: T1, NKG2D (natural receptor on NK cells); experiment: Duolink proximity ligation assay NKG2D+DAP10, counted PLA signals, CAR-NK cells stimulated by 293T-MICA
NKG2D-GFP = target: T2, NKG2D-GFP; experiment: Duolink proximity ligation assay (anti-GFP + anti-DAP10) in NKG2D-GFP expressing NK cells with CAR0 or CAR2, stimulated by 293T-CD19-MICA, confocal microscopy
Method: (§1) PLA assays were performed using the in situ Duolink PLA red kit (Sigma-Aldrich) according to the manufacturer's instructions. The CAR0, an empty vector with GFP expression, or CAR2-GFP fusion expressing NK cells were attached to the poly-l-lysine glass, target cells were then added and incubated at 37° C. for 30 minutes. Unattached cells were removed by washing with PBS. slides were fixed and stained with anti-GFP (Rabbit IgG) and anti-DAP10 (Mouse IgG), washed, and stained with anti-rabbit and anti-mouse PLA probes, followed by probe DNA ligation, amplification, Fluorescent staining were then performed and observed using confocal microscopy,
(§2) NKG2D receptor has no intracellular signaling domain, it recruits adaptor DNAX-Activation Protein 10 (DAP10) to transfer signals via YxxM motif (Eagle et al. (2009) Beyond Stressed Self: Evidence for NKG2D Ligand Expression on Healthy Cells. Curr Immunol Rev. 5(1):22-34). […] DAP10 was recruited to the CAR2 effectively stimulating by CD19.

[2] = target: B1; experiment: Duolink proximity ligation assay (anti-GFP + anti-DAP10) in NK cells stimulated by 293T-CD19-MICA, confocal microscopy
Method: as §1, §2

Row | binding result [1] | binding result (NKG2D-GFP) | binding result [2] | Binder
1 | binds | binds | – | B1
2 | – | – | binds | B2
